Where “and” joins values, the source holds several entries; their conditions need not be identical. Equal values may be shown once.
Target: T1, GIPR-Rluc8 (human), P48546
T1 chain: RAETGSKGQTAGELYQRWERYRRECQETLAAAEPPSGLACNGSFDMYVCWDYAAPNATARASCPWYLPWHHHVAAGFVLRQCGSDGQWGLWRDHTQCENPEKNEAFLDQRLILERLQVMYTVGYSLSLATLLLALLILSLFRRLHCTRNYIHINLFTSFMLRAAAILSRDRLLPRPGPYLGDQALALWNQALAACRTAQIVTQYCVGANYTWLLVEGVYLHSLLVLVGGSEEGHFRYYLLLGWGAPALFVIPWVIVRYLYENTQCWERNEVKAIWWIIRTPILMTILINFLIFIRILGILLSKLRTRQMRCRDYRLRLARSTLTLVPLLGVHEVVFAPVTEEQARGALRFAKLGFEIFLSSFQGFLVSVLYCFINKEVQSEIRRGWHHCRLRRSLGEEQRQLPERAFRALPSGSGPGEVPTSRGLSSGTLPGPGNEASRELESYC
Test: FRET or BRET
Conditions: remark: other sources report otherwise

pEC50 of GIP (1-42) for β-arr1 recruitment (BRET): 7.7 and 7.94 and 7.67
B1: Venus-β-arrestin 1, P49407 1-418 (natural protein)
chain: MGDKGTRVFKKASPNGKLTVYLGKRDFVDHIDLVDPVDGVVLVDPEYLKERRVYVTLTCAFRYGREDLDVLGLTFRKDLFVANVQSFPPAPEDKKPLTRLQERLIKKLGEHAYPFTFEIPPNLPCSVTLQPGPEDTGKACGVDYEVKAFCAENLEEKIHKRNSVRLVIRKVQYAPERPGPQPTAETTRQFLMSDKPLHLEASLDKEIYYHGEPISVNVHVTNNTNKTVKKIKISVRQYADICLFNTAQYKCPVAMEEADDTVAPSSTFCKVYTLTPFLANNREKRGLALDGKLKHEDTNLASSTLLREGANREILGIIVSYKVKVKLVVSRGGLLGDLASSDVAVELPFTLMHPKPKEEPPHREVPENETPVDTNLIELDTNDDDIVFEDFARQRLKGMKDDKEEEEDGTGSPQLNNR

Source: paper PMC10576055
